Laboratory results published in US20200297860 (published 2020).

T1: human mesothelin (human, UniProt Q13421)
T1 chain: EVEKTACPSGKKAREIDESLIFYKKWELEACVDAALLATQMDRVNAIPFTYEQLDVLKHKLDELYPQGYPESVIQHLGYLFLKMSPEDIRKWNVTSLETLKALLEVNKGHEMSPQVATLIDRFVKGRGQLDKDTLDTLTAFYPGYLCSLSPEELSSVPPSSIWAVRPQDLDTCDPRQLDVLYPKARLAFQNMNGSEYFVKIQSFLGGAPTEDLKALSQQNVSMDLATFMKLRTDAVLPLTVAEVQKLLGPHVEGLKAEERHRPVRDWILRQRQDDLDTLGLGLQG

B1: 111B10-zu (antibody, V domains shown)
VH: EVQLVESGGGLVQPGGSLRLSCAASGFSLNNYAMSWVRQAPGKGLEWIGSISTGGLAFYANWAKGRFTISRDNSKNTLYLQMNSLRAEDTAVYYCARNGGGSYIFYYFDLWGQGTLVTVSS
VL: DIQMTQSPSSLSASVGDRVTITCQASQSISSYLSWYQQKPGKAPKLLIYSASTLASGVPSRFSGSGSGTDFTLTISSLQCEDAATYYCQSYYDIGTSTFGGGTKVEIK
B2: MORAb003-DBCO-PEG2 eribulin (antibody, V domains shown)
VH: EVQLVESGGGVVQPGRSLRLSCSASGFTFSGYGLSWVRQAPGKGLEWVAMISSGGSYTYYADSVKGRFAISRDNAKNTLFLQMDSLRPEDTGVYFCARHGDDPAWFAYWGQGTPVTVSS
VL: DIQLTQSPSSLSASVGDRVTITCSVSSSISSNNLHWYQQKPGKAPKPWIYGTSNLASGVPSRFSGSGSGTDYTFTISSLQPEDIATYYCQQWSSYPYMYTFGQGTKVEIK
B3: MORAb003-DBCO-PEG4 eribulin (antibody, V domains shown)
VH: B2 VH
VL: B2 VL
B4: MORAb003-DBCO-ER1138856 (antibody, V domains shown)
VH: B2 VH
VL: B2 VL
B5: MORAb003-DBCO-PEG4 VCP eribulin (antibody, V domains shown)
VH: B2 VH
VL: B2 VL
B6: 346C6-zu (antibody, V domains shown)
VH: EVQLVESGGGLVQPGGSLRLSCAASGFSLSSYAMIWVRQAPGKGLEWIGTISTGGITYYASWAKGRFTISRDNSKNTLYLQMNSLRAEDTAVYYCARGGYAASSAYYLPYYFDLWGQGTLVTVSS
VL: DIQMTQSPSSLSASVGDRVTITCQSSQSVYNNNNLAWYQQKPGKVPKLLIYLASTLASGVPSRFSGSGSGTDFTLTISSLQCEDAATYYCLGGCDDDADTFAFGGGTKVEIK
B7: MORAb003-ER1236941 (antibody, V domains shown)
VH: B2 VH
VL: B2 VL
B8: MORAb003-ER1235638 (antibody, V domains shown)
VH: B2 VH
VL: B2 VL

Legend:
human mesothelin = molecular target: T1, human mesothelin; assay: SPR
[1] = molecular target: human folate receptor alpha (human); assay: ELISA
Chain of human folate receptor alpha (human) (P15328 whole entry): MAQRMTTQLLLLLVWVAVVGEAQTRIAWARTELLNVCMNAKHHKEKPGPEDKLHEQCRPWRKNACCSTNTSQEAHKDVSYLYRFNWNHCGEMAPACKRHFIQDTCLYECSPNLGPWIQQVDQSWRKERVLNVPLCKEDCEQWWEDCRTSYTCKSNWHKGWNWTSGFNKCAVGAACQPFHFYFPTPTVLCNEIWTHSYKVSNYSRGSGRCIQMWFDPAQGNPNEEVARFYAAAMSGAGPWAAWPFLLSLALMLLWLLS

Binder	Kd (human mesothelin) [nM]	EC50 [1] [µg/mL]
B1	6.5	–
B2	–	0.0191
B3	–	0.0133
B4	–	0.015
B5	–	0.016
B6	8.9	–
B7	–	0.013
B8	–	0.0153
